{"source": "paper PMC5773207", "molecular_target": "Nogo-B receptor construct NgBR(79–293) (human) (UniProt Q96E22)", "experiment": "SEC; size exclusion (Superdex 200 10/300 GL) in-line with synchrotron SAXS; 20 mg/mL NgBR(79-293), 20 mM HEPES pH 7.5, 150 mM NaCl, 5% glycerol, 1 mM TCEP, 25°C", "note": "Where “and” joins values, the source holds several entries; their conditions need not be identical. Equal entries are not always repeated."}
{"substance": "Nogo-B receptor construct NgBR(79–293) (from UniProt Q96E22 79-293) (domain or fragment)", "values": [{"measurement": "stoichiometry N", "result": "2 and 4"}]}
